Test results: PMC6532066 (Nature, 2019)
Where two headings read alike, the source gives them in different places.

T1: LptF (E. coli K-12, UniProt P0AF98)
T1 sequence: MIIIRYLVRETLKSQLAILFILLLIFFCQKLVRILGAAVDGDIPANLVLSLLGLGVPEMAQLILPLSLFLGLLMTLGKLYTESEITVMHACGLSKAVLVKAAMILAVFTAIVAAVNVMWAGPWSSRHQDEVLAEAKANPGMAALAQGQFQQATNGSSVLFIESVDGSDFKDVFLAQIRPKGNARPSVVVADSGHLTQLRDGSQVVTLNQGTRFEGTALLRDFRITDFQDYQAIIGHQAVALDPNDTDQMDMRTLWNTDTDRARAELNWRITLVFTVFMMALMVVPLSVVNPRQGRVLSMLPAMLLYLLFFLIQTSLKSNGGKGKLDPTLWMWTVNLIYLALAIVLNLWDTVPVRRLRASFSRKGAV

T2: LptG (E. coli K-12, UniProt P0ADC6)
T2 sequence: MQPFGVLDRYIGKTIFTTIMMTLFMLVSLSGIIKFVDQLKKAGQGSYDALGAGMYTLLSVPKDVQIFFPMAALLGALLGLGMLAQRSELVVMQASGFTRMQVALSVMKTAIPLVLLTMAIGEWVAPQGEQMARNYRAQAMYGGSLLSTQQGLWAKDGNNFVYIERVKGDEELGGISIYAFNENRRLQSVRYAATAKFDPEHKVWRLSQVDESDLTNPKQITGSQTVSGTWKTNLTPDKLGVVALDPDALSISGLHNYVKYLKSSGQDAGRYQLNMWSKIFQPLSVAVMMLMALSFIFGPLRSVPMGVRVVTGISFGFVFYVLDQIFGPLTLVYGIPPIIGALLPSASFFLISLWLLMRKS


Legend:
Experiment in all cases: cryo-EM structure
LptF [1] = biological target: T1, LptF
LptF [2] = biological target: T1, LptF; remark: listed apart in the source
LptG = biological target: T2, LptG

Row | Binder | binding result (LptF [1]) | binding result (LptF [2]) | binding result (LptG)
1 | LptC (natural protein) MSKARRWVIIVLSLAVLVMIGINMAEKDDTAQVVVNNNDPTYKSEHTDTLVYNPEGALSYRLIAQHVEYYSDQAVSWFTQPVLTTFDKDKIPTWSVKADKAKLTNDRMLYLYGHVEVNALVPDSQLRRITTDNAQINLVTQDVTSEDLVTLYGTTFNSSGLKMRGNLRSKNAELIEKVRTSYEIQNKQTQP | binds |  | 
2 | LptB (natural protein) MATLTAKNLAKAYKGRRVVEDVSLTVNSGEIVGLLGPNGAGKTTTFYMVVGIVPRDAGNIIIDDDDISLLPLHARARRGIGYLPQEASIFRRLSVYDNLMAVLQIRDDLSAEQREDRANELMEEFHIEHLRDSMGQSLSGGERRRVEIARALAANPKFILLDEPFAGVDPISVIDIKRIIEHLRDSGLGVLITDHNVRETLAVCERAYIVSQGHLIAHGTPTEILQDEHVKRVYLGEDFRL |  | binds | binds
